Tests used:
untagged YsaL (YE3555) [1] = experiment: SPR
untagged YsaL (YE3555) [2] = experiment: SPR; remark: listed apart in the source
untagged YsaL (YE3555) [3] = experiment: SPR; refolded YsaN
untagged YsaL (YE3555) [4] = experiment: SPR; remark: listed apart in the source

B1: YsaNΔ(411–430)-His (domain or fragment)
chain: MNLFDSCAHPSRIHGCLLEAPLHGVFIGEICLIERDLCQPEVIAKAQVVGFKEGQTILSLIGRAQGLTREVVIRPTGQPFVFEMGEHLAGKIYNAAGEEVGVLSNATASSEPLFTTLCRVDNPPVSVNLRRPVTTPLVTGVRAIDGLLTCGQGQRMGIFAAAGSGKTSLMSMIMNHAVADICVIALIGERGREVTEFIHELQTSPRAAQTILVYATSDSPAVERCNAALLATAMAEYFRDQGKDVLLFVDSMTRYARALRDVALAAGELPARRGYPASVFEQLPLLLERPGALQHGSITAFYTVLLESEEESDPIGDEIRSIIDGHIYLSAQLAGRGHYPAIDILHSISRVFSKVTTPQHRQDAAKTRDMLGRLAQIQLYLDLGEYQRGENTDNDHALDNRDVIEGFLQQ
- Kd (untagged YsaL (YE3555) [1]): 260 nM

B2: YsaNΔ(426–430)-His (domain or fragment)
chain: MNLFDSCAHPSRIHGCLLEAPLHGVFIGEICLIERDLCQPEVIAKAQVVGFKEGQTILSLIGRAQGLTREVVIRPTGQPFVFEMGEHLAGKIYNAAGEEVGVLSNATASSEPLFTTLCRVDNPPVSVNLRRPVTTPLVTGVRAIDGLLTCGQGQRMGIFAAAGSGKTSLMSMIMNHAVADICVIALIGERGREVTEFIHELQTSPRAAQTILVYATSDSPAVERCNAALLATAMAEYFRDQGKDVLLFVDSMTRYARALRDVALAAGELPARRGYPASVFEQLPLLLERPGALQHGSITAFYTVLLESEEESDPIGDEIRSIIDGHIYLSAQLAGRGHYPAIDILHSISRVFSKVTTPQHRQDAAKTRDMLGRLAQIQLYLDLGEYQRGENTDNDHALDNRDVIEGFLQQAMEEPGEFSTTLNQL
- Kd (untagged YsaL (YE3555) [2]): 114 nM

B3: YsaNflr-His (full length YsaN, refolded) (enzyme)
chain: MNLFDSCAHPSRIHGCLLEAPLHGVFIGEICLIERDLCQPEVIAKAQVVGFKEGQTILSLIGRAQGLTREVVIRPTGQPFVFEMGEHLAGKIYNAAGEEVGVLSNATASSEPLFTTLCRVDNPPVSVNLRRPVTTPLVTGVRAIDGLLTCGQGQRMGIFAAAGSGKTSLMSMIMNHAVADICVIALIGERGREVTEFIHELQTSPRAAQTILVYATSDSPAVERCNAALLATAMAEYFRDQGKDVLLFVDSMTRYARALRDVALAAGELPARRGYPASVFEQLPLLLERPGALQHGSITAFYTVLLESEEESDPIGDEIRSIIDGHIYLSAQLAGRGHYPAIDILHSISRVFSKVTTPQHRQDAAKTRDMLGRLAQIQLYLDLGEYQRGENTDNDHALDNRDVIEGFLQQAMEEPGEFSTTLNQLRELAN
- Kd (untagged YsaL (YE3555) [3]): 42 nM

B4: YsaNΔ(1–5)-His (domain or fragment)
chain: SCAHPSRIHGCLLEAPLHGVFIGEICLIERDLCQPEVIAKAQVVGFKEGQTILSLIGRAQGLTREVVIRPTGQPFVFEMGEHLAGKIYNAAGEEVGVLSNATASSEPLFTTLCRVDNPPVSVNLRRPVTTPLVTGVRAIDGLLTCGQGQRMGIFAAAGSGKTSLMSMIMNHAVADICVIALIGERGREVTEFIHELQTSPRAAQTILVYATSDSPAVERCNAALLATAMAEYFRDQGKDVLLFVDSMTRYARALRDVALAAGELPARRGYPASVFEQLPLLLERPGALQHGSITAFYTVLLESEEESDPIGDEIRSIIDGHIYLSAQLAGRGHYPAIDILHSISRVFSKVTTPQHRQDAAKTRDMLGRLAQIQLYLDLGEYQRGENTDNDHALDNRDVIEGFLQQAMEEPGEFSTTLNQLRELAN
- Kd (untagged YsaL (YE3555) [4]): 500 µM
